Source: article PMC13056932 (Nature Communications, 2026)

B1: capsid triplex protein 2 (TRX2; ORF41) (natural protein, UniProt P09291 1-316, looked up)
chain: MAMPFEIEVLLPGELSPAETSALQKCEGKIITFSTLRHRASLVDIALSSYYINGAPPDTLSLLEAYRMRFAAVITRVIPGKLLAHAIGVGTPTPGLFIQNTSPVDLCNGDYICLLPPVFGSADSIRLDSVGLEIVFPLTIPQTLMREIIAKVVARAVERTAAGAQILPHEVLRGADVICYNGRRYELETNLQHRDGSDAAIRTLVLNLMFSINEGCLLLLALIPTLLVQGAHDGYVNLLIQTANCVRETGQLINIPPMPRIQDGHRRFPIYETISSWISTSSRLGDTLGTRAILRVCVFDGPSTVHPGDRTAVIQV
B2: capsid vertex-specific component 2 (CVC2; ORF34) (natural protein, UniProt P09287 1-579, looked up)
chain: MTARYGFGSISFPNKCGIFLSTTKNFIAPNFPIHYWTAPAFELRGRMNPDLEKNTLTLKNAAAVAALDNLRGETITLPTEIDRRLKPLEEQLTRMAKVLDSLETAAAEAEEADAQSEECTRTEIIRNESIHPEVQIAKNDAPLQYDTNFQVDFITLVYLGRARGNNSPGIVFGPWYRTLQERLVLDRPVAARGVDCKDGRISRTFMNTTVTCLQSAGRMYVGDRAYSAFECAVLCLYLMYRTSNSVHEPQVSSFGNLIEHLPEYTETFVNYMTTHENKNSYQFCYDRLPRDQFHARGGRYDQGALTSHSVMDALIRLQVLPPAPGQFNPGVNDIIDRNHTAYVDKIQQAAAAYLERAQNVFLMEDQTLLRLTIDTITALLLLRRLLWNGNVYGDKLKNNFQLGLIVSEATGTPTNNVILRGATGFDGKFKSGNNNFQFLCERYIAPLYTLNRTTELTEMFPGLVALCLDAHTQLSRGSLGRTVIDISSGQYQDRLISLIALELEHRRQNVTSLPIAAVVSIHDSVMLQYERGLGMLMHQPRVRAALEESRRLAQFNVNSDYDLLYFVCLGVIPQFASTP

Key:
[1] = target: large tegument protein VP1/2 (ORF22) (Varicella-zoster virus (parental Oka strain)) (UniProt P09278); test: cryo-EM structure
[2] = target: the molecule itself; test: cryo-EM structure

Molecule | stoichiometry N [1] | stoichiometry N [2]
large tegument protein VP1/2 (ORF22), P09278 1-2763 | 2 | 
B1 |  | 2
B2 |  | 2
